# Non-standard residues stand in square brackets, D forms with d. Groups on a side chain read outwards from the residue. Primed or numbered codes have the meaning given here. No end group written: not given here. *: point of attachment. C18 diacid = O=C(O)CCCCCCCCCCCCCCCCC(=O)*; Palmitoyl = CCCCCCCCCCCCCCCC(=O)*; PEG2′ = not defined here; Aib = CC(C)(N)C(=O)O
# Experiments:
# [1] = molecular target: human glucagon-like peptide-1 receptor (human, UniProt P43220 24-463); experiment: cell-based or functional assay
# Sequence of human glucagon-like peptide-1 receptor (P43220 24-463): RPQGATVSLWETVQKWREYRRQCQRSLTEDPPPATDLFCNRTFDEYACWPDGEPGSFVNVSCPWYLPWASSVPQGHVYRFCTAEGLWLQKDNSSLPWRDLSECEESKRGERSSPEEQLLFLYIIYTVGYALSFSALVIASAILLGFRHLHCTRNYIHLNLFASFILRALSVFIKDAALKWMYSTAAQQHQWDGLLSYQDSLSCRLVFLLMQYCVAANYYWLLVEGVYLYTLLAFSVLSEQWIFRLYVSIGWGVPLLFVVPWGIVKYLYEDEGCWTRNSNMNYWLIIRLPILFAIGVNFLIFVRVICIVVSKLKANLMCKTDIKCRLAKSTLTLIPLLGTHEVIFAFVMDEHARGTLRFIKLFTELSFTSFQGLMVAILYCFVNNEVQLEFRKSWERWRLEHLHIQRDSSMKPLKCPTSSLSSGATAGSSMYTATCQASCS
# human glucagon receptor = human glucagon receptor (human, UniProt P47871 26-477); experiment: cell-based or functional assay
Binder,"GLP-1R (EC50, nM), CRE-luciferase in HEK-293 cells [1]","GCGR (EC50, nM), CRE-luciferase in HEK-293 cells (human glucagon receptor)"
H[dS]QGTFTSDYSKYLDEKAAK([PEG2′-PEG2′-Glu-Palmitoyl])EFIEWLLNGGPSSGAPPPS-NH2 [Compound 24],0.16 nM,0.58 nM
H[Aib]QGTFTSDK([PEG2′-PEG2′-Glu-C18 diacid])SKYLDERRAQDFVQWLLDGGPSSGAPPPS-NH2 [Compound 20],0.09 nM,0.48 nM
H[Aib]QGTFTSDK([PEG2′-PEG2′-Glu-Palmitoyl])SKYLD[Aib]RRAQDFVQWLLDGGPSSGAPPPS-NH2 [Compound 21],0.15 nM,0.66 nM
H[dS]QGTFTSDYSKYLD[Aib]K([PEG2′-PEG2′-Glu-C18 diacid])RAQDFVQWLMNTGGPSSGAPPPS-NH2 [Compound 14],0.4 nM,0.19 nM
H[dS]QGTFTSDYSKYLDSK([PEG2′-PEG2′-Glu-C18 diacid])AAHDFVEWLLNGGPSSGAPPPS-NH2 [Compound 3],0.59 nM,1.02 nM
H[dS]QGTFTSDYSKYLD[Aib]K([PEG2′-PEG2′-C18 diacid])RAQDFVQWLMNTGGPSSGAPPPS-NH2 [Compound 12],0.32 nM,0.15 nM
H[dS]QGTFTSDYSKYLDEKAAK([PEG2′-PEG2′-Glu-C18 diacid])EFIEWLLRA-NH2 [Compound 2],0.39 nM,2.8 nM
H[dS]QGTFTSDK([PEG2′-PEG2′-C18 diacid])SKYLD[Aib]RRAQDFVQWLMNTGGPSSGAPPPS-NH2 [Compound 6],0.1 nM,0.33 nM
H[dS]QGTFTSDYSKYLDEKAAK([PEG2′-PEG2′-Glu-C18 diacid])EFIEWLLNGGPSSGAPPPS-NH2 [Compound 4],0.13 nM,0.39 nM
H[dS]QGTFTSDYSKYLDK([PEG2′-PEG2′-Glu-Palmitoyl])RRAQDFVQWLMNTGGPSSGAPPPS-NH2 [Compound 10],0.35 nM,0.11 nM
H[dS]QGTFTSDYSKYLDEKAAK([PEG2′-PEG2′-Palmitoyl])EFIEWLLNGGPSSGAPPPS-NH2 [Compound 23],0.13 nM,0.43 nM
H[dS]QGTFTSDYSK([PEG2′-PEG2′-Palmitoyl])KLD[Aib]RRAQDFVQWLMNTGGPSSGAPPPS-NH2 [Compound 15],1.5 nM,0.6 nM
H[dS]QGTFTSDYSKYLD[Aib]K([PEG2′-PEG2′-Glu-Palmitoyl])RAQDFVQWLMNTGGPSSGAPPPS-NH2 [Compound 13],0.44 nM,0.16 nM
H[Aib]QGTFTSDK([PEG2′-PEG2′-Glu-C18 diacid])SKYLD[Aib]RRAQDFVQWLLDGGPSSGAPPPS-NH2 [Compound 22],0.06 nM,0.32 nM
H[dS]QGTFTSDK([PEG2′-PEG2′-Glu-C18 diacid])SKYLD[Aib]RRAQDFVQWLMNTGGPSSGAPPPS-NH2 [Compound 8],0.2 nM,0.18 nM
H[dS]QGTFTSDYSK([PEG2′-PEG2′-C18 diacid])KLD[Aib]RRAQDFVQWLMNTGGPSSGAPPPS-NH2 [Compound 16],0.6 nM,0.2 nM
H[dS]QGTFTSDYSKYLDK([PEG2′-PEG2′-Glu-C18 diacid])RRAQDFVQWLMNTGGPSSGAPPPS-NH2 [Compound 11],0.15 nM,0.18 nM
H[dS]QGTFTSDYSK([PEG2′-PEG2′-Glu-Palmitoyl])KLD[Aib]RRAQDFVQWLMNTGGPSSGAPPPS-NH2 [Compound 17],0.68 nM,0.58 nM
H[dS]QGTFTSDK([PEG2′-PEG2′-Glu-Palmitoyl])SKYLD[Aib]RRAQDFVQWLMNTGGPSSGAPPPS-NH2 [Compound 7],–,0.34 nM
H[dS]QGTFTSDYSKYLDSK([PEG2′-PEG2′-Glu-C18 diacid])AAHDFVEWLLRA-NH2 [Compound 1],0.23 nM,0.54 nM
H[dS]QGTFTSDK([PEG2′-PEG2′-Palmitoyl])SKYLD[Aib]RRAQDFVQWLMNTGGPSSGAPPPS-NH2 [Compound 5],0.06 nM,0.43 nM
H[dS]QGTFTSDYSKYLDK([PEG2′-PEG2′-C18 diacid])RRAQDFVQWLMNTGGPSSGAPPPS-NH2 [Compound 9],0.52 nM,0.18 nM
HSQGTFTSDYSKYLDSRRAQDFVQWLMNTKRNKNNIA (ligand) [Oxyntomodulin],–,6.2 nM
H[Aib]QGTFTSDK([PEG2′-PEG2′-Glu-Palmitoyl])SKYLDERRAQDFVQWLLDGGPSSGAPPPS-NH2 [Compound 19],0.14 nM,0.56 nM
H[dS]QGTFTSDYSK([PEG2′-PEG2′-Glu-C18 diacid])KLD[Aib]RRAQDFVQWLMNTGGPSSGAPPPS-NH2 [Compound 18],0.76 nM,0.18 nM

# Source: patent US20170183383A1 (JIANG XIANXING, published 2017)
